Results reported in the domain aggregation screens of Martell et al. (2025).

Test: soluble fraction after stress (log2 fold change); higher = more stays soluble; pooled small domains, quantitative proteomics
Settings: stress: pH 4
Summary of the method: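 Aggregation propensity is estimated from the fold change in each domain's soluble amount after acid stress. Pooled small-domain libraries were stressed at pH 4, and higher log2 values mean more stayed soluble.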

Sequence | soluble fraction (log2)
HMAAAQILRAAVLRVPAEETMRFVTETPELRRYLGASLGPTAAIVRPGQEQNLAAALQSHGILVEFDE | 0.106
HMAADLIGLEARVTLPLTEDQRGFIETSVRGSLVRRAALSASGRLDRGQRVVILRSEGTTLIVDAL | -0.372
HMAADRRKAERPLIDGQAVMDRFEVGPGPMVGKALKFLLALKRAEPDLDLAGTEERLDAWWNEQL | 0.289
HMAAEFERKNGIVYFFHSSEKPHLNYPHVHARYGEDTISISLRDFTVIGSFSSKKKQKEAVEYVKNK | -0.352
HMAAEPDQQLIKPASDPVLRTMKIEELMKMSEQVKIQMSKAAKNFDYLEAARLRDEHFALENLIKLRS | 0.156
HMAAGELSGEALIALIERHPMALSALATTFGHSESDLRAFVEPLARQGRLRLFESQGTLFVGGIG | 0.00392
HMAAHHIILEEREQLSVSGVEEVESFDENTIVMLTNRGTLIVRGEELHIEKLSLDGGDLRVEGSIDSLTYE | -1.09
HMAAHWANFLEALRAGRARRVLVARGVEGWLLKELERLGAPYTLVPRIELDTLLRTTHHQGIAAEVE | -0.748
HMAAPELLTVRERQVAALISDGLSNQQIAHRLHLEVTTVKAHIGSIFNRLDMNNRVQIAIWAHDRQLVFS | 0.0815
HMAAQDIILKRNAEQIEAIVKEITDTDVKYRKFTNTEGVTYSIRRSEVFSITYENGTMDLFA | 0.206
HMAAQDLIVKTDASQVEARVLEISPDAVRYKRFSNPDGPTYVLPVAEIRYIRYANGEVEYYA | -0.207
HMAAQLAHVPAVTGRPLAEAQRILADNRLNAQVTQQPVAEPKLDGVVIAQKITEGTRTMRGATVPLIVGKY | 0.148
HMAASGTVNSGGDPLRVRADPNTSSQILTKLSDGTQVEVLEQAENGWYKIAHEGISGFVSGEYLVVH | -0.356
HMAAVAPPVLERIASDLATRFAGTLSPETVDRYVRESYHLLAERAGITRYLPSLTARFAGDRLDA | -0.208
HMAAVEDLPVKSVNGKKYHYYTVQPKESLYSLSHKLGISRQEIIKYNPGVEDGLKAYEDLLFPYTPK | -0.419
HMAAVSTDEEFAALGIPAEWIPVLKSNGFQTVESLKKVAPGALFNQLGGLRKKNKLEIAMPSLDQVKAWLA | -0.278
HMADDFISTLFSEGIIIDTEVKQFAERQGSPLQFVRHIASNLPEPRDIITMGEVRSVMREGA | -1.04

Sequence | soluble fraction (log2)
HMADEEEIMVPQVVGKTYDEAKSELENAGFKVEKNEKTSDKASGTVISQSINGGAKKGTSVTLTVSKGN | 0.132
HMADFYEVLGVERNASSDQIKRAYRKLARELHPDVNLDPVAQNRFKEVTEAYEVLSDPNKRSNFDRG | -0.0615
HMADGEWAEMQRQLTAAGLLVVGRAAQERIQRLSDISPLIEAAQRSNVVMLSERTVDEVLTLVPT | -0.468
HMADGTSIYAEREVLYVTSPTANTAKVYNVSGALVRTMTLSAGQTVRTALPAGFYVVALGNGNTHKVIV | 0.0275
HMADKSLLELPGLDGDKVSALVTAGVRNVNDLADLATDELVEKTGFDEKTAADLIIAARAVVY | -0.283
HMADLNQTDIDSITKSVGGVEQYKSLMDWAGKTLSQDAIDSFDDLVNTGNKGSIQLAVNGLVAQYQNDN | 0.121
HMADMKIHLRPYAHDTNRWHVDIRLMHPTAATEIRKRLVAPAGLSEAQARAWGERQVPTILGKALGVI | -0.042
HMADNILPAQTDAIKALATENGFSNESLEKYLIENYGTTIYGLSRNQGIQIINLFQSENPPKP | -0.207
HMADQIIEGILGKEGGYVNNPNDKGGPTRWGITQTTARAYGYSGDMKALPRDTAKAIYLSQYWT | -0.218
HMADTPQAYIRQMVQEAGADGIMLSTITDRLRARFKDFKVRDLGYAQMRQYMASTGTYDLEKSGRNFRVHL | 0.181
HMADTSLDHLGVLVRHASDVDAWAEFFENRGVTLASQPRTHRDGARSFYVDDPDGNRVQVIYHPPI | -0.81
HMADWTETELAALRRAYASGTTRVSYDGKSVDYGSAEDLLSRIRTLQGAASDVAADAVAAVDA | -0.153
HMADYSMDDNAWNAKKADIDEWFEANPDFSANKAITDGLFSIGDSQVEMRKRYWASIAGVFAGLPNSPIG | -1.78
HMAEANTEADFVAIGVRAELLPILQKLGVHTIEQLKGIKATKLFNDIPGMRKKLKLDAVQNPTLQEIEGWL | -0.393
HMAEAPGSVELLAERLRPWWEIHGGEWGSKTKALRFLFGDQAPVAGSYWRALEAAIAQIESTT | -0.108
HMAEKNALWEEDAVYAADSSALARDGYDAIVRTDKGGKKGYLVVGTGGRERFMPLQTLVMLGYLKK | -0.0478
HMAEKRTAIITTARADIRQKPEATAPLAFEAVKDVVLELTDKPADGWVRVKHRDGSTGYIRINQI | -0.132
